Columns and labels:
[1] = molecular target: T1, PD-1 (soluble, biotinylated, on sensors or coated on plates) (human, UniProt Q15116 25-167, biotinylated (avi tag, Avidity's biotinylation kit) in the Octet assays); test: ELISA; variable antigen coating
[2] = molecular target: T1, PD-1 (soluble, biotinylated, on sensors …); test: ELISA; constant antigen coating

T1 sequence (Q15116 25-167): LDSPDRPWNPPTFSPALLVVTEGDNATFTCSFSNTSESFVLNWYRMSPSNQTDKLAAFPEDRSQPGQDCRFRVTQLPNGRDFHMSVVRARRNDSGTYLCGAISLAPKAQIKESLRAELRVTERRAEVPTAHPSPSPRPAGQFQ

- EC50 [1]: 0.514 µg/mL
- EC50 [2]: 0.0407 µg/mL
B1: P4-B3 IgG1 wild type monomer (antibody, V domains shown)
VH: QVQLVQSGGGLVQPGRSLRLSCAASGFTFDDYAMHWVRQAPGKGLEWVSGISWNSGSIGYADSVKGRFTVSRDNAKNSLYLQMNSLRAEDTAVYYCASDYGDKYYYYGMDVWGKGTTVTVSS
VL: QPGLTQPPSASGTPGQRVTISCSGSSSNIGSNTVNWYQQFPGKAPKLLIFNDNQRPSGVPDRFSASKSGTSASLAISGLQSEDEADYYCAAWDGGLNGRGVFGGGTKLTVLG
